Laboratory results taken from CN112759647A.
Residue numbers refer to the chain shown, from its start.

B1: 鼠抗体13C9 (antibody, from another filing, V domains shown)
VH: QVQLKQSGAGLVKPGASVKLSCKASGYIFTEYIIHWVKQRSGQGLEWIGWFYPGSDNIKYNEKFKDKATLTADKSSSTVYMELSRLTSEDSAVYFCARHETGYFFDYWGQGTTLTVSS
VL: DIVITQSPAIMSASPGEKVTMTCSASSSVSKMNWYQQKSGTSPKRWIYDTSKLASGVPSRFSGSGSGTSYSLTISSMEAEDAATYYCQQWSSNPLTFGSGTKLELKR
B2: 鼠抗体28B1 (antibody, from another filing, V domains shown)
VH: QVQLKQSGAELVKPGASVMLSCTASAFNIDDTYIHWVKQRPEQGLEWIGRIDPANGNTDYDPECQGKATITTDMSSNTAYLQLSSLTSEDTAVYFCARGLRLPGLVYWGRGTLVTVSA
VL: DIQMTQTTSSLSASLGDRVTISCRASQDISNYLNWYQQKPDGTVKLLIYYTSILYSGVPSRFSGSGSGTDYSLTINTLEEEDIATYFCQQGNTLPWTFGGGTKLEIIR
B3: 鼠抗体22B10 (antibody, from another filing, V domains shown)
VH: QVQLKQSGAELVKPGASVELSCTASGFNIEDTYLHWVNQRPEQGLEWIGRIDPANGNTYYDPKFQGKATITTDTSSNTAYLQLSRLTSEDTAVYYCARGLRLPGFPYWGQGTLVTVSA
VL: B2 VL with T8P, N34S, Y55H, T74A, N76S, T77N, E79D, E80Q, I107K
B4: 鼠抗体8A2 (antibody, from another filing, V domains shown)
VH: QVQLKQSGPGLVAPSQSLSITCTVSGFSLTGYGVNWVRQPPGKGLEWLGKIWGDGITDYNSALKSRLSISKDNSKSQVFLKMNSLQTDDTARYYCARDVMDYWGQGTSVTVSS
VL: QIVLTQSPAIMSASPGEKVTMTCSASSSISYMHWYQQKPGTSPKRWIYDTSKLASGVPARFSGSESGTSYSLTISSMEAEDAATYYCHHRSPYPTFGAGTKLELK
B5: 鼠抗体15G10 (antibody, from another filing, V domains shown)
VH: QVQLKQSGPELVKPGASVKTSCKASGYTFTNYVVHWVKQNPGQGLEWIGYVNPNNDGTIFNEKFKDKAILTSDKSSSTAYMELSSLTSEDSAVYYCARSPFAHWGQGTLVTVSA
VL: QIVLTQSPASLTVSLGQRATISCSASESVDFYGTSLMQWFQQKPGQPPKLLVYTASNVDSEVPARFSGSGSGTDFSLNIHPVEEDDIAMYFCHQTRKVPYTFGGGTKLEIK

Target: 人PD-L1 on 293T-h-PDL1 cells (HEK293 stably expressing PD-L1) (human) (UniProt Q9NZQ7)
Assay: FACS, antibody on 293T-h-PDL1 cells

EC50 | Binder
0.49 mg/L | B1

Target: 人PD-L1 on 293T-h-PDL1 cells (HEK293 stably expressing PD-L1) (human) (UniProt Q9NZQ7)
Assay: FACS, hybridoma supernatant on 293T-h-PDL1 cells

EC50 | Binder
0.39 mg/L | B2
0.517 mg/L | B3
0.44 mg/L | B1
0.336 mg/L | B4
1.45 mg/L | B5

Target: 人PD-L1胞外区与人IgG1-FC的融合蛋白 (human) (UniProt Q9NZQ7)
Assay: FACS blocking: supernatant premixed with 500 ng PD-L1-hFc; competitor PD-1 on 293T-h-PD1 cells

IC50 | Binder
2.31 mg/L | B2
4.31 mg/L | B3
1.95 mg/L | B1
5.17 mg/L | B4
4 mg/L | B5
